Laboratory results reported in the supplement of paper PMC10065799, “High-throughput profiling of sequence recognition by tyrosine kinases and SH2 domains using bacterial peptide display” (eLife, 2023).

Test system: AncSZ
Assay: phosphorylation enrichment, bacterial display (enrichment ratio); higher = better substrate or ligand; peptides without Tyr show the background
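Note: 11-residue human phosphosite peptides and single-mutation variants displayed on the E. coli surface, counted by deep sequencing, each peptide's frequency after selection divided by its frequency in the unselected input library; frequency after pTyr selection over input frequency; kinase dosed for 20-30% of maximal phosphorylation in three min.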

Sequence | phosphorylation enrichment
STILLYHIMAW [GPR143_Y157] | 1.59
NKVKFYIPDMN [NCR1_Y84] | 0.743
GIVEDYRPPLF [ACVRL1_Y421_F425L_YF] | 0.841
PVKDPYVMFPQ [PLEKHG2_Y489] | 0.982
GNHISYYQSDG [CACNA1C_Y1757_V1755I] | 0.821
HFVDEYDRTIE [KRAS_Y32_P34R] | 2.01
RCLKDYGEFEV [GINS1_Y156] | 1.1
QPSALYEDRYL [ASS1_Y83_S79P] | 0.93
IHHIDYFKETT [FGFR1_Y653_K656E_YF] | 0.605
RVGVDYEGRGC [PLOD1_Y675_G678R] | 1.01
PEPTGYSAELS [EZR_Y499_A494P] | 1.02
ASGKFYAMKIL [AKT3_Y174_YF] | 0.858
NMSRIYSTAKV [ACE_Y151] | 0.573
LPENPYHSRPR [NDUFA8_Y142] | 0.643
SVVVPYELPEV [TP53_Y220_P222L] | 1.65
TVSQPYSFIEF [SEC22B_Y110_R108Q] | 1.29
HTVVSYAEVRA [CLOCK_Y378] | 1.12

Sequence | phosphorylation enrichment
CEAIEYLESKQ [BTK_Y511_M509I] | 1.29
FSQETYYRVSN [ABCD1_Y180_Q178E] | 1.26
LKDEDYLKDIV [HAUS3_Y582] | 2.21
PESILYRKFTT [NTRK1_Y701] | 1.14
EAIAKYDLKAT [GRB2_Y7_F9L] | 0.809
ADEQIYWQIAA [CSKtide_2014] | 2.59
IRTIDYRFTVS [IDS_Y497_W502S_YF] | 0.907
SIDLGYHKDLQ [NF1_Y1169_G1166D] | 1.17
RREQDYTNLPS [CSF1R_Y923_R921Q] | 0.805
CSKRFYQLTKL [AR_Y858_R855K] | 0.75
MSRDVYSIDFF [NTRK2_Y702_T704I_YF] | 1.02
EHEALYLEADL [CENPF_Y1920] | 1.66
YQQLFYLLQIN [IQGAP2_Y890_T894I] | 1.57
EQYELHCEMGS [CBL_Y371_Y371H] | 1.33
NGVSFYINLCQ [IGF2R_Y2025_YF] | 1.5
ANNPLYKEVTS [ITGB3_Y773_A776V] | 0.695

Biological target: FGFR1 (UniProt P11362)
Sequence (P11362 whole entry, looked up): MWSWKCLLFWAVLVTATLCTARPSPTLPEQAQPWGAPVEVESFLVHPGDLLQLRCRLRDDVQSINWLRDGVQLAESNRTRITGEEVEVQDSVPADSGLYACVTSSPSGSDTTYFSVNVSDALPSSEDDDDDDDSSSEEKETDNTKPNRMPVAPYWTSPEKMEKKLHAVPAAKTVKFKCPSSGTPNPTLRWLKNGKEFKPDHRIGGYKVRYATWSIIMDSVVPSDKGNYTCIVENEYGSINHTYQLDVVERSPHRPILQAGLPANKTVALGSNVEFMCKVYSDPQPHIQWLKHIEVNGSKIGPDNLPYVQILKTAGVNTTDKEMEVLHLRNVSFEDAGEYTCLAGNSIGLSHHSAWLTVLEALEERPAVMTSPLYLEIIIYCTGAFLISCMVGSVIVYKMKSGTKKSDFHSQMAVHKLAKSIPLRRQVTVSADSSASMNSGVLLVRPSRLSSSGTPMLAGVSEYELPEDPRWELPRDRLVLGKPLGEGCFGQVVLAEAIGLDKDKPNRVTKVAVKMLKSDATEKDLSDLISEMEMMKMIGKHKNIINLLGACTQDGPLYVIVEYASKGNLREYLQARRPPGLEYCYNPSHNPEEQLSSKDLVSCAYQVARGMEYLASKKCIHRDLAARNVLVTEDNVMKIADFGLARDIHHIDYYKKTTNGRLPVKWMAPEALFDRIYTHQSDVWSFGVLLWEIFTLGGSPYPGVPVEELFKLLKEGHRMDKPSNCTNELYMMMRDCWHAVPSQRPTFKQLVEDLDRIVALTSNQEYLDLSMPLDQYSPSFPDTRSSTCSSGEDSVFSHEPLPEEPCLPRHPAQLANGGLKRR
Assay: as above

Sequence | phosphorylation enrichment
STILLYHIMAW [GPR143_Y157] | 2.8
NKVKFYIPDMN [NCR1_Y84] | 0.432
GIVEDYRPPLF [ACVRL1_Y421_F425L_YF] | 0.434
PVKDPYVMFPQ [PLEKHG2_Y489] | 2.05
GNHISYYQSDG [CACNA1C_Y1757_V1755I] | 0.655
HFVDEYDRTIE [KRAS_Y32_P34R] | 0.644
RCLKDYGEFEV [GINS1_Y156] | 0.399
QPSALYEDRYL [ASS1_Y83_S79P] | 0.529
IHHIDYFKETT [FGFR1_Y653_K656E_YF] | 0.443
RVGVDYEGRGC [PLOD1_Y675_G678R] | 0.617
PEPTGYSAELS [EZR_Y499_A494P] | 0.502
ASGKFYAMKIL [AKT3_Y174_YF] | 0.609
NMSRIYSTAKV [ACE_Y151] | 0.451
LPENPYHSRPR [NDUFA8_Y142] | 0.442
SVVVPYELPEV [TP53_Y220_P222L] | 0.553
TVSQPYSFIEF [SEC22B_Y110_R108Q] | 11.5
HTVVSYAEVRA [CLOCK_Y378] | 0.62

Sequence | phosphorylation enrichment
CEAIEYLESKQ [BTK_Y511_M509I] | 0.574
FSQETYYRVSN [ABCD1_Y180_Q178E] | 4.96
LKDEDYLKDIV [HAUS3_Y582] | 1.04
PESILYRKFTT [NTRK1_Y701] | 0.627
EAIAKYDLKAT [GRB2_Y7_F9L] | 0.466
ADEQIYWQIAA [CSKtide_2014] | 7.87
IRTIDYRFTVS [IDS_Y497_W502S_YF] | 0.483
SIDLGYHKDLQ [NF1_Y1169_G1166D] | 0.607
RREQDYTNLPS [CSF1R_Y923_R921Q] | 1.01
CSKRFYQLTKL [AR_Y858_R855K] | 0.401
MSRDVYSIDFF [NTRK2_Y702_T704I_YF] | 1.61
EHEALYLEADL [CENPF_Y1920] | 1.73
YQQLFYLLQIN [IQGAP2_Y890_T894I] | 2.23
EQYELHCEMGS [CBL_Y371_Y371H] | 0.538
NGVSFYINLCQ [IGF2R_Y2025_YF] | 0.568
ANNPLYKEVTS [ITGB3_Y773_A776V] | 0.495

Biological target: Hck (UniProt P08631)
Sequence (P08631 whole entry, looked up): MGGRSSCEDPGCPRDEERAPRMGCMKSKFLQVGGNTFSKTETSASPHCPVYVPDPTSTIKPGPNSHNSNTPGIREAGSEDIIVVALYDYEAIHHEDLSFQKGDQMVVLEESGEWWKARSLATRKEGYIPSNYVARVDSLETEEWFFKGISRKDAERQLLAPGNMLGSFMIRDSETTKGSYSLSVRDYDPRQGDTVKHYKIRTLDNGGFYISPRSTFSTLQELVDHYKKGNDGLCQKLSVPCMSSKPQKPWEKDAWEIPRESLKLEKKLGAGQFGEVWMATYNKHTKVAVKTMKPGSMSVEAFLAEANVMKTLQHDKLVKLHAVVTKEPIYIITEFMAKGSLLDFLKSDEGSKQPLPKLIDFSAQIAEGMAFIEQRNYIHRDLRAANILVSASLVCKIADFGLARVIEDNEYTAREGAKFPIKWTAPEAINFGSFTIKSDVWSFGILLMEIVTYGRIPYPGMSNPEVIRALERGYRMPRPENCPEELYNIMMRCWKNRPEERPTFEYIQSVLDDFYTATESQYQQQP
Assay: as above

Sequence | phosphorylation enrichment
STILLYHIMAW [GPR143_Y157] | 1.44
NKVKFYIPDMN [NCR1_Y84] | 0.432
GIVEDYRPPLF [ACVRL1_Y421_F425L_YF] | 0.343
PVKDPYVMFPQ [PLEKHG2_Y489] | 0.685
GNHISYYQSDG [CACNA1C_Y1757_V1755I] | 0.397
HFVDEYDRTIE [KRAS_Y32_P34R] | 0.701
RCLKDYGEFEV [GINS1_Y156] | 0.635
QPSALYEDRYL [ASS1_Y83_S79P] | 3.92
IHHIDYFKETT [FGFR1_Y653_K656E_YF] | 0.446
RVGVDYEGRGC [PLOD1_Y675_G678R] | 0.528
PEPTGYSAELS [EZR_Y499_A494P] | 0.419
ASGKFYAMKIL [AKT3_Y174_YF] | 0.53
NMSRIYSTAKV [ACE_Y151] | 0.528
LPENPYHSRPR [NDUFA8_Y142] | 0.916
SVVVPYELPEV [TP53_Y220_P222L] | 0.58
TVSQPYSFIEF [SEC22B_Y110_R108Q] | 3.08
HTVVSYAEVRA [CLOCK_Y378] | 0.899

Sequence | phosphorylation enrichment
CEAIEYLESKQ [BTK_Y511_M509I] | 0.552
FSQETYYRVSN [ABCD1_Y180_Q178E] | 4.2
LKDEDYLKDIV [HAUS3_Y582] | 0.787
PESILYRKFTT [NTRK1_Y701] | 0.538
EAIAKYDLKAT [GRB2_Y7_F9L] | 0.458
ADEQIYWQIAA [CSKtide_2014] | 4.33
IRTIDYRFTVS [IDS_Y497_W502S_YF] | 0.444
SIDLGYHKDLQ [NF1_Y1169_G1166D] | 0.454
RREQDYTNLPS [CSF1R_Y923_R921Q] | 0.492
CSKRFYQLTKL [AR_Y858_R855K] | 0.424
MSRDVYSIDFF [NTRK2_Y702_T704I_YF] | 4.17
EHEALYLEADL [CENPF_Y1920] | 0.715
YQQLFYLLQIN [IQGAP2_Y890_T894I] | 0.911
EQYELHCEMGS [CBL_Y371_Y371H] | 0.498
NGVSFYINLCQ [IGF2R_Y2025_YF] | 0.567
ANNPLYKEVTS [ITGB3_Y773_A776V] | 0.551

Biological target: Jak2 (UniProt O60674)
Sequence (O60674 whole entry, looked up): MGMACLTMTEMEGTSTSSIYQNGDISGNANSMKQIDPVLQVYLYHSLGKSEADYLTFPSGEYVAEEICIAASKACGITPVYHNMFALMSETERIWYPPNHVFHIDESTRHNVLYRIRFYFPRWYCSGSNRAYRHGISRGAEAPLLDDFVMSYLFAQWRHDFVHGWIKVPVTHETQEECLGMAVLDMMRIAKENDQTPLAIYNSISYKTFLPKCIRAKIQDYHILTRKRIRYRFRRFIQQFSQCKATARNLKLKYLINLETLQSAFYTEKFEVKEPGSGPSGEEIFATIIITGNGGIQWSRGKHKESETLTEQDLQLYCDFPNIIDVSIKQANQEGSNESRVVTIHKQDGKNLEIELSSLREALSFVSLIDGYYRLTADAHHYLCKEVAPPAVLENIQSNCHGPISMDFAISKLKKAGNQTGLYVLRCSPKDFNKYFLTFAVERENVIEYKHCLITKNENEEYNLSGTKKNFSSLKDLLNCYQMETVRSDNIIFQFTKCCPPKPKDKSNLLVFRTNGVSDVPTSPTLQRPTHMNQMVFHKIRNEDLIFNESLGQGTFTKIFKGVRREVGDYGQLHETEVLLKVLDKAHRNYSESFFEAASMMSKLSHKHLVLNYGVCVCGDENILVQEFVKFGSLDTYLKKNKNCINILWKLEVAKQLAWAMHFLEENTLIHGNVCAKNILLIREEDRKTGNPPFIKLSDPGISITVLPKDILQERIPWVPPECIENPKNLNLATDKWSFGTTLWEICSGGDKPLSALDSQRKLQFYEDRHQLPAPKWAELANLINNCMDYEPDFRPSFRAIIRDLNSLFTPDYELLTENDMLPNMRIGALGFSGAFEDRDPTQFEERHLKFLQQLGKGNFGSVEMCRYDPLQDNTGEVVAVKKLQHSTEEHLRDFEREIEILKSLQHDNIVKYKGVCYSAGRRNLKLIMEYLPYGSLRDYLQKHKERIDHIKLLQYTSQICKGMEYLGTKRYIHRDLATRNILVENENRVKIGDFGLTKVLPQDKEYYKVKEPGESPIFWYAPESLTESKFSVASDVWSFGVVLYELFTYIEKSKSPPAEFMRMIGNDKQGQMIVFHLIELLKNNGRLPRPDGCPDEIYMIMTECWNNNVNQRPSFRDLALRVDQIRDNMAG
Assay: as above

Sequence | phosphorylation enrichment
STILLYHIMAW [GPR143_Y157] | 1.89
NKVKFYIPDMN [NCR1_Y84] | 0.8
GIVEDYRPPLF [ACVRL1_Y421_F425L_YF] | 0.626
PVKDPYVMFPQ [PLEKHG2_Y489] | 0.964
GNHISYYQSDG [CACNA1C_Y1757_V1755I] | 0.484
HFVDEYDRTIE [KRAS_Y32_P34R] | 1.67
RCLKDYGEFEV [GINS1_Y156] | 1.45
QPSALYEDRYL [ASS1_Y83_S79P] | 1.04
IHHIDYFKETT [FGFR1_Y653_K656E_YF] | 0.692
RVGVDYEGRGC [PLOD1_Y675_G678R] | 0.616
PEPTGYSAELS [EZR_Y499_A494P] | 0.871
ASGKFYAMKIL [AKT3_Y174_YF] | 0.801
NMSRIYSTAKV [ACE_Y151] | 0.535
LPENPYHSRPR [NDUFA8_Y142] | 0.552
SVVVPYELPEV [TP53_Y220_P222L] | 1.09
TVSQPYSFIEF [SEC22B_Y110_R108Q] | 0.933
HTVVSYAEVRA [CLOCK_Y378] | 0.779

Sequence | phosphorylation enrichment
CEAIEYLESKQ [BTK_Y511_M509I] | 1.33
FSQETYYRVSN [ABCD1_Y180_Q178E] | 6.03
LKDEDYLKDIV [HAUS3_Y582] | 2.87
PESILYRKFTT [NTRK1_Y701] | 1.14
EAIAKYDLKAT [GRB2_Y7_F9L] | 0.851
ADEQIYWQIAA [CSKtide_2014] | 1.58
IRTIDYRFTVS [IDS_Y497_W502S_YF] | 0.989
SIDLGYHKDLQ [NF1_Y1169_G1166D] | 0.856
RREQDYTNLPS [CSF1R_Y923_R921Q] | 0.449
CSKRFYQLTKL [AR_Y858_R855K] | 0.706
MSRDVYSIDFF [NTRK2_Y702_T704I_YF] | 0.889
EHEALYLEADL [CENPF_Y1920] | 1.12
YQQLFYLLQIN [IQGAP2_Y890_T894I] | 1.67
EQYELHCEMGS [CBL_Y371_Y371H] | 1.03
NGVSFYINLCQ [IGF2R_Y2025_YF] | 1.92
ANNPLYKEVTS [ITGB3_Y773_A776V] | 0.691
